Where no end group is shown, it is not given here.
Legend:
Hdm2 210-304 = molecular target: T1, Hdm2 210-304 (Homo sapiens, UniProt Q00987); experiment: CD-based binding assay, induction of β-strand secondary structure with Hdm2 210-304
T1 construct: poly-His (thrombin cleavable, pET28a) (cleaved yes); made in house; host or cells: E. coli BL21(DE3)
Experimental: Circular Dichroism. Spectra were recorded at 25° C. using an Aviv Model 62A DS circular dichroism spectropolarimeter (Aviv Instruments, Inc.) equipped with a thermoelectric temperature control unit. All samples were prepared in 10 mM Tris-HCl, pH 7.0 at 0.02-0.2 mM as determined by amino acid analysis. Spectra were recorded using 1 mm quartz cuvettes and reported spectra are the average of 10 scans over the range […]. Melting experiments were recorded in 10 mm quartz cuvettes with active stirring. The signal at 216 nm (β strand minimum) was used to monitor structural changes and the signal was averaged over 15 sec. The sample temperature was increased in 1° C. steps. […]
Characterization of Arf Hdm2 assemblies. […] The binding of mArfN37 to Hdm2 210-304, as monitored in this way, is saturable. […]
To investigate the roles of individual Arf motifs (A1 and A2) and Arf-binding segments of Hdm2 (H1 and H2) in the interactions between Arf and Hdm2 the binding of peptides containing these small segments (A1, A2, H1, or H2) to larger protein fragments of the corresponding binding partner (mArfN37 or Hdm2 210-304) were monitored using the CD-based binding assay. […] Peptides from the Hdm2 library that were positive for mArfN37 binding on the basis of SPR (i.e. those within H1 and H2) were mixed with mArfN37 and binding was monitored in the same manner. […]

Hdm2 210-275 = molecular target: T2, Hdm2 210-275 (Homo sapiens, UniProt Q00987); experiment: CD-based binding assay, induction of β-strand secondary structure with Hdm2 210-275
T2 construct: poly-His (thrombin cleavable, pET28a) (cleaved yes); made in house; host or cells: E. coli BL21(DE3)
Experimental: Circular Dichroism. Spectra were recorded at 25° C. using an Aviv Model 62A DS circular dichroism spectropolarimeter (Aviv Instruments, Inc.) equipped with a thermoelectric temperature control unit. All samples were prepared in 10 mM Tris-HCl, pH 7.0 at 0.02-0.2 mM as determined by amino acid analysis. Spectra were recorded using 1 mm quartz cuvettes and reported spectra are the average of 10 scans over the range […]. Melting experiments were recorded in 10 mm quartz cuvettes with active stirring. The signal at 216 nm (β strand minimum) was used to monitor structural changes and the signal was averaged over 15 sec. The sample temperature was increased in 1° C. steps.
β-strand secondary structure forms when Arf and Hdm2 interact. […] This structural transition is induced when mArfN37 is added to an Hdm2 fragment and when an Hdm2 fragment is added to mArfN37. […] In contrast, the uncomplexed species elute at times consistent with monodisperse, conformationally extended polypeptides. Second, NMR resonances for ^15N-mArfN37 or ^15N-Hdm2 210-304 (and ^15N-Hdm2 210-275) are broadened beyond detection when an unlabeled form of the appropriate binding partner is added to the solution. At mArfN37:Hdm2 210-304 (or mArfN37:Hdm2 210-275) molar ratios that produce maximal β-strand secondary structure based on ellipticity at 200 nm using CD, resonances cannot be observed for the isotope-labeled component of Arf/Hdm2 mixtures. Further, the NMR spectra are consistent with slow exchange between the free and bound states.
Characterization of Arf Hdm2 assemblies. As discussed above, the addition of mArfN37 to Hdm2 210-304 results in the formation of supramolecular assemblies comprised of β-strands. Stepwise addition of sub-stoichiometric amounts of mArfN37 to Hdm2 210-304 increased β-strand secondary structure content as judged by the change in ellipticity at 200 nm using CD. […] The binding of mArfN37 to Hdm2 210-304, as monitored in this way, is saturable. Similar results were obtained when mArfN37 was mixed with the shorter fragment of Hdm2, Hdm2 210-275. Further, saturable binding is also observed when the Hdm2 fragments were added to an excess of mArfN37. These findings indicate that there are a limited number of binding sites for mArfN37 within Hdm2 210-304 and that discreet structures (containing β-strands) form when mArfN37 and Hdm2 210-304 (or 210-275) are mixed. […] Similar behavior is observed when mArfN37 binds Hdm2 210-275.

T1 sequence (Q00987 210-304): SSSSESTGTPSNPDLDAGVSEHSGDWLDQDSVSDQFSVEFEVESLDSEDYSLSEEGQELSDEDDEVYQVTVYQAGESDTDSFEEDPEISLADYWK
T2 sequence (Q00987 210-275): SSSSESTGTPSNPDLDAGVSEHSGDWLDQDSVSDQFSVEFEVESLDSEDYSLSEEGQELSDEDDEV

Substance: mArfN37: peptide containing the N-terminal 37 amino acids of mouse Arf (p19^Arf residues 1-37, SEQ ID NO:16) (MGRRFLVTVRIQRAGRPLQERVFLVKFVRSRRPRTAS; also: His tag; listed as Mus musculus)
- induction of β-strand secondary structure when mixed with Hdm2 210-304 (CD) (Hdm2 210-304): transition from random conformations to β-strand secondary structure
- induction of β-strand secondary structure/assembly when mixed with Hdm2 210-275 (CD) (Hdm2 210-275): transition from random conformations to β-strand secondary structure

Source: patent US7704703B2, “Arf and Hdm2 interaction domains and the methods of use thereof” (St. Jude Children's Research Hospital, Inc., priority 2002, dated 2010)
